The values that follow come from publication PMC5449596.

In general, Kd refers to a measure of binding affinity in units of concentration. A lower Kd goes with tighter binding.

Data set [1] concerns the target T1, HIV-1 reverse transcriptase, subtype B (HIV-1 subtype B strain HXB2, UniProt P04585;P04585 588-1147;588-1027). Put plainly: filter binding.
Data set [2] addresses T1, HIV-1 reverse transcriptase, subtype B. The experiment in a line: filter binding. The source holds these as a separate data set.

B1: 88.1 (6/5AL) aptamer (structured_RNA)
RNA: GGGAAAAGCGAAUCAUACACAAGACAUUGACCAAAAGGGUCGAUAGCGUCGUGUAGAUUGCACCCAUGACUGAGCUACUGCCAAAUCCACCCACGGGCAUAAGGUAUUUAAUUCCAUA
Molecule B1 came in with a Kd in data set [1] of 81 nM.

B2: Arbitrary control RNA (ssRNA)
RNA: GGGAAAAGCGAAUCAUACACAAGAAAUUUGGACUUUCCGCCCUUCUUGGCCUUUAUGAGGAUCUCUCUGAUUUUUCUUGCGUCGAGUUUUCCGGGGGCAUAAGGUAUUUAAUUCCAUA
With B2, the binding result in data set [2] was “no binding”.
